Test results: US12247072 (ASHER BIOTHERAPEUTICS, dated 2025)
Positions count from the first letter of the chain named. Names may count otherwise.

T1: mouse CD8b (mouse, UniProt P10300 22-175, limits assumed)
T1 sequence (looked up): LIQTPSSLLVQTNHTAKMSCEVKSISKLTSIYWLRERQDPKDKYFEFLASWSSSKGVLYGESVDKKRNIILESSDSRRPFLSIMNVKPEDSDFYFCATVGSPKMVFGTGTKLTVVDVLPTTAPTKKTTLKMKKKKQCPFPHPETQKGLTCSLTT

B1: xhCD8.1-hIL21 v29 (other)
VH: QVQLVQSGAEVKKPGSSVKVSCKASGGTFSSYAISWVRQAPGQGLEWMGGIIPGYATANYAQKFQGRVTITADESTSTAYMELSSLRSEDTAVYYCARDAAGIRLFADWGQGTLVTVSS
VL: DIQMTQSPSSLSASVGDRVTITCRASQSIYGALNWYQQKPGKAPKLLIYGASNLQSGVPSRFSGSGSGTDFTLTISSLQPEDFATYYCQSTYTAPWTFGGGTKVEIK
chain: QGQDRHMIRMRQLIDIVDQLKNYVNDLVPEFLPAPEDVETNCEWSAFSCFQKAQLKSANTGNNERIINVSIKKLKRKPPGGGGEGGGGGEGGCPSCDSYEKKPPKEFLERFKSLLQKMIHQHLSSRTHGSEDS
notes: Human IgG1/kappa, knob-into-hole, L234A/L235A/G237A
B2: xhCD8.1-hIL21 v30 (other)
VH: B1 VH
VL: B1 VL
chain: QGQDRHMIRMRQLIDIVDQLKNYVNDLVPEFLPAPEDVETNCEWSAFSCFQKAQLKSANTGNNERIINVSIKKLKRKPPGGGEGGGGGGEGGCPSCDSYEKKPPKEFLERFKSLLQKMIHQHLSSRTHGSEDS
notes: as for B1
B3: xhCD8.1-hIL21 v27 (other)
VH: B1 VH
VL: B1 VL
chain: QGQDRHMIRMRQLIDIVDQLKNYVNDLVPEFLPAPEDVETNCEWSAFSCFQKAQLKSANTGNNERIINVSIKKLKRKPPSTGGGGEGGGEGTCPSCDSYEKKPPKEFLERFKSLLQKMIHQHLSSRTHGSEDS
notes: as for B1
B4: xhCD8.1-hIL21 v31 (other)
VH: B1 VH
VL: B1 VL
chain: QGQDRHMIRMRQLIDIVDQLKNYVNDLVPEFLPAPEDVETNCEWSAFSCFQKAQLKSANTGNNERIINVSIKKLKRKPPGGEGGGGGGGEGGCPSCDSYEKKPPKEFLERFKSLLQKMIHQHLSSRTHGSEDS
notes: as for B1
B5: xhCD8.1-hIL21 v28 (other)
VH: B1 VH
VL: B1 VL
chain: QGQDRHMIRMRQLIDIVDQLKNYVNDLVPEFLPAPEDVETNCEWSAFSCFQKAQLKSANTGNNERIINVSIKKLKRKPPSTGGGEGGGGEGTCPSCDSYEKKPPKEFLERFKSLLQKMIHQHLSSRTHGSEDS
notes: as for B1
B6: xhCD8-hIL21 v2 (other)
VH: QVHLQQSGPELVKPGASVKMSCKTSGYTFTKYTMHWVKQGHEESLEWIGHFNPNNDETKYNQKFTGKATLTVDKSSTTAYMELRSLTSDDSALYYCARDGLGLRLFADWGQGTLITVSA
VL: DIQMTQSPASLSASVGETVTITCGASENIYGALNWYQRKQGKSPQLLIFGATNLADGVSSRFSGSGSDRQYSLKISSLHPDDVATYYCQNILDTPWTFGGGTKLEIK
chain: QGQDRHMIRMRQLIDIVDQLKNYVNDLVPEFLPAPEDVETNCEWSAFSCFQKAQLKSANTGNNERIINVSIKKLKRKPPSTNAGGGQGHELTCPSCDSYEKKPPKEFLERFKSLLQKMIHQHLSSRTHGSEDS
notes: Human IgG1/kappa, knob-into-hole, L234A/L235A/G237A; also called xhCD8-Fc-hIL21 v2; exemplary IL-21 polypeptide 2
B7: xhCD8-hIL21 v1 (other)
VH: B6 VH
VL: B6 VL
chain: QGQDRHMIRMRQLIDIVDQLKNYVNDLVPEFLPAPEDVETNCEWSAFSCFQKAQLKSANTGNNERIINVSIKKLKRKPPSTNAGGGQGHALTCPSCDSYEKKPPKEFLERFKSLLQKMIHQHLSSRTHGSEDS
notes: Human IgG1/kappa, knob-into-hole, L234A/L235A/G237A; also called exemplary IL-21 polypeptide 1
B8: xhCD8-hIL21 v6 (other)
VH: B6 VH
VL: B6 VL
chain: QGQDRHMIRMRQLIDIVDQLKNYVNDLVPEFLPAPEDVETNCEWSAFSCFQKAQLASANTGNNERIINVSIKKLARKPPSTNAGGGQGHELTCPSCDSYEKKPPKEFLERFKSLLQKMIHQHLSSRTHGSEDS
notes: Human IgG1/kappa, knob-into-hole, L234A/L235A/G237A; also called exemplary IL-21 polypeptide 6
B9: hIL21 v31.23, non-fusion, 8His-tagged (ligand)
chain: QGQDRHMIRMRQLIDIVDQLKNYVNDLVPEFLPAPEDVETNCEWSAFSCFQKAQLKSANTGNNERIINVSIKKLKQKPPGGEGGGGGGGEGGCPSCDSYEKKPPKEFLERFKSLLQKMIHQHLSSRTHGSEDSGGASHHHHHHHH
B10: hIL21 v31.51, non-fusion, 8His-tagged (ligand)
chain: B9 chain with R9G, Q76R
B11: xhCD8.1 (antibody, V domains shown)
VH: B1 VH
VL: B1 VL
notes: Anti-human CD8 antibody; human IgG1/kappa; also called xhCD8v12; xCtrl (in mouse studies)
B12: xhCD8v11 (antibody, V domains shown)
VH: EVQLVESGGGLVQPGGSLRLSCAASGFTFSSYAMSWVRQAPGKGLEWVSDITYAGGSTAYADSVKGRFTISRDNAKNSLYLQMNSLRAEDTAVYYCARSNAYAWDDALDIWGQGTLVTVSS
VL: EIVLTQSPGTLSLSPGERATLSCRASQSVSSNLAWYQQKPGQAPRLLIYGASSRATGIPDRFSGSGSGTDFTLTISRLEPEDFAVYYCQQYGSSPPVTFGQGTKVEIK
notes: Anti-human CD8 antibody; human IgG1/kappa

Each binder was assayed against T2, Human IL-21R (Biolegend, Catalog No. 773104) (human, UniProt Q9HBE5 20-232, limits assumed) (assay: SPR, 37 C;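 on Kd: fc fusion proteins captured on an anti-human IgG Fc Biacore surface, 10 min dissociation, double-referenced data fitted to a 1:1 Langmuir model with mass transport, triplicate runs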;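 on koff: fc fusion proteins captured on an anti-human IgG Fc Biacore surface, 10 min dissociation, double-referenced data fitted to a 1:1 Langmuir model with mass transport, triplicate runs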;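 on kon: fc fusion proteins captured on an anti-human IgG Fc Biacore surface, 10 min dissociation, double-referenced data fitted to a 1:1 Langmuir model with mass transport, triplicate runs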).
T2 construct: Bought; also called human IL-21 receptor
T2 sequence (Q9HBE5 20-232 limits assumed): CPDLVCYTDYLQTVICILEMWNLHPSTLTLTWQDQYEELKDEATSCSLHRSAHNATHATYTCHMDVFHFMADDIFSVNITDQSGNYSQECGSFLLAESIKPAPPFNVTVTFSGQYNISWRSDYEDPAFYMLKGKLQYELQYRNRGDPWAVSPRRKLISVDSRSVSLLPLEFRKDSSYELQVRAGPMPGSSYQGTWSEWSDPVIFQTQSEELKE

fold difference of IL-21R affinity against wild type IL-21 [fold] | Binder
≤ 2 | B1
≤ 2 | B2
≤ 2 | B3
≤ 2 | B4
≤ 2 | B5
≤ 2 | B6
≤ 2 | B7
~3 | B8

These binders were tested against Recombinant human IL-21R, extracellular domain fused to 8x Histidine tag (generated in house) (human, UniProt Q9HBE5 20-232) (assay: SPR, 25 C).
Chain of Recombinant human IL-21R, extracellular domain fused to 8x Histidine tag (generated in house) (Q9HBE5 other isoform, or with tags, fused parts or gaps limits assumed): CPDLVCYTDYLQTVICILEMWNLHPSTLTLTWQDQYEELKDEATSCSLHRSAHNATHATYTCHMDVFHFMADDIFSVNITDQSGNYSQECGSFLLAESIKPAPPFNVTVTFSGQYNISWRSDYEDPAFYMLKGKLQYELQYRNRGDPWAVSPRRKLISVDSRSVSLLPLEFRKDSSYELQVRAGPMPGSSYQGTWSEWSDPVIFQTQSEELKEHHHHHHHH

Kd [nM] | Binder
6060 | B9
7730 | B10

What follows are binders tested against T3, mouse CD8 (mouse, UniProt P01731 28-247; P10300 22-213) (assay: not described).
T3 construct: copies: 1 + 1
T3 sequence (P01731 28-247 limits assumed, one chain of several): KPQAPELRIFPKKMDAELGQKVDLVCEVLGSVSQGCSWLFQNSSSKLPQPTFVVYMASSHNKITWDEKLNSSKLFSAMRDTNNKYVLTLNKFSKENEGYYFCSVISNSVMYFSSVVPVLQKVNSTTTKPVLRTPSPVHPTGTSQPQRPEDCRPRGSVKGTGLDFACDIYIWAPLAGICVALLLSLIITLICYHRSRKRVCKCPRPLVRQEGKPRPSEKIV

binding result | Binder
no binding | B11
no binding | B12

What follows are binders tested against T1, mouse CD8b (assay: not described).

binding result | Binder
no binding | B11

Target: T2, Human IL-21R (Biolegend, Catalog No. …)
Assay: SPR, 37 C
Remark: another data set of the same source

Kd [nM] | koff [s⁻¹] | kon [M⁻¹ s⁻¹] | Binder
0.094 | 0.00119 | 1.27e+07 | B1
0.093 | 0.00107 | 1.16e+07 | B2
0.106 | 0.00139 | 1.31e+07 | B3
0.094 | 0.00113 | 1.2e+07 | B4
0.106 | 0.00139 | 1.31e+07 | B5
0.122 | 0.0011 | 8.9e+06 | B6
0.117 | 0.00097 | 8.3e+06 | B7
0.478 | 0.0025 | 5.2e+06 | B8
